Assay results taken from the supplement of paper PMC11246515.
± gives the standard deviation of the averaged measurements.

Experiment: total protein half-life in vivo (active degradation + dilution); higher = more stable protein
[1] = E. coli NCM3722 delta-clpP delta-lon delta-hslV, growth: N-lim chemostat, doubling time 6 h
[2] = E. coli NCM3722 delta-clpP, growth: N-lim chemostat, doubling time 6 h
[3] = E. coli NCM3722 delta-hslV, growth: N-lim chemostat, doubling time 6 h
[4] = E. coli NCM3722 delta-lon, growth: N-lim chemostat, doubling time 6 h
[5] = E. coli NCM3722 delta-smpB, growth: N-lim chemostat, doubling time 6 h
[6] = wild type E. coli NCM3722, growth: C-lim chemostat, doubling time 3 h
[7] = wild type E. coli NCM3722, growth: C-lim chemostat, doubling time 6 h
[8] = wild type E. coli NCM3722, growth: C-lim chemostat, doubling time 12 h
[9] = wild type E. coli NCM3722, growth: N-lim chemostat, doubling time 6 h
[10] = wild type E. coli NCM3722, growth: N-lim chemostat, doubling time 12 h
[11] = wild type E. coli NCM3722, growth: P-lim chemostat, doubling time 6 h
[12] = wild type E. coli NCM3722, growth: P-lim chemostat, doubling time 12 h

Sequence	total protein half-life in vivo [1] [h]	total protein half-life in vivo [2] [h]	total protein half-life in vivo [3] [h]	total protein half-life in vivo [4] [h]	total protein half-life in vivo [5] [h]	total protein half-life in vivo [6] [h]	total protein half-life in vivo [7] [h]	total protein half-life in vivo [8] [h]	total protein half-life in vivo [9] [h]	total protein half-life in vivo [10] [h]	total protein half-life in vivo [11] [h]	total protein half-life in vivo [12] [h]
MALWGGRFTQAADQRFKQFNDSLRFDYRLAEQDIVGSVAWSKALVTVGVLTAEEQAQLEEALNVLLEDVRARPQQILESDAEDIHSWVEGKLIDKVGQLGKKLHTGRSRNDQVATDLKLWCKDTVSELLTANRQLQSALVETAQNNQDAVMPGYTHLQRAQPVTFAHWCLAYVEMLARDESRLQDALKRLDVSPLGCGALAGTAYEIDREQLAGWLGFASATRNSLDSVSDRDHVLELLSAAAIGMVHLSRFAEDLIFFNTGEAGFVELSDRVTSGSSLMPQKKNPDALELIRGKCGRVQGALTGMMMTLKGLPLAYNKDMQEDKEGLFDALDTWLDCLHMAALVLDGIQVKRPRCQEAAQQGYANATELADYLVAKGVPFREAHHIVGEAVVEAIRQGKPLEDLPLSELQKFSQVIDEDVYPILSLQSCLDKRAAKGGVSPQQVAQAIAFAQARLG	4.96 ± 1	4 ± 0.055	3.462 ± 0.011	4.05 ± 0.2	3.65 ± 0.28	3.02 ± 0.055	5.59 ± 0.33	10.5 ± 0.22	3.77 ± 0.17	5.76 ± 0.05	5.29 ± 0.76	11 ± 0.68
MKKVTAMLFSMAVGLNAVSMAAKAKASEEQETDVLLIGGGIMSATLGTYLRELEPEWSMTMVERLEGVAQESSNGWNNAGTGHSALMELNYTPQNADGSISIEKAVAINEAFQISRQFWAHQVERGVLRTPRSFINTVPHMSFVWGEDNVNFLRARYAALQQSSLFRGMRYSEDHAQIKEWAPLVMEGRDPQQKVAATRTEIGTDVNYGEITRQLIASLQKKSNFSLQLSSEVRALKRNDDNTWTVTVADLKNGTAQNIRAKFVFIGAGGAALKLLQESGIPEAKDYAGFPVGGQFLVSENPDVVNHHLAKVYGKASVGAPPMSVPHIDTRVLDGKRVVLFGPFATFSTKFLKNGSLWDLMSSTTTSNVMPMMHVGLDNFDLVKYLVSQVMLSEEDRFEALKEYYPQAKKEDWRLWQAGQRVQIIKRDAEKGGVLRLGTEVVSDQQGTIAALLGASPGASTAAPIMLNLLEKVFGDRVSSPQWQATLKAIVPSYGRKLNGDVAATERELQYTSEVLGLNYDKPQAADSTPKPQLKPQPVQKEVADIAL	3.81 ± 0.31	2.29 ± 0.29	1.1 ± 0.013	0.95	1.15 ± 0.2				1.19 ± 0.58	1.46 ± 0.27		
MSYLNLRLYQRNTQCLHIRKHRLAGFFVRLVVACAFAAQAPLSSADLYFNPRFLADDPQAVADLSRFENGQELPPGTYRVDIYLNNGYMATRDVTFNTGDSEQGIVPCLTRAQLASMGLNTASVAGMNLLADDACVPLTTMVQDATAHLDVGQQRLNLTIPQAFMSNRARGYIPPELWDPGINAGLLNYNFSGNSVQNRIGGNSHYAYLNLQSGLNIGAWRLRDNTTWSYNSSDRSSGSKNKWQHINTWLERDIIPLRSRLTLGDGYTQGDIFDGINFRGAQLASDDNMLPDSQRGFAPVIHGIARGTAQVTIKQNGYDIYNSTVPPGPFTINDIYAAGNSGDLQVTIKEADGSTQIFTVPYSSVPLLQREGHTRYSITAGEYRSGNAQQEKTRFFQSTLLHGLPAGWTIYGGTQLADRYRAFNFGIGKNMGALGALSVDMTQANSTLPDDSQHDGQSVRFLYNKSLNESGTNIQLVGYRYSTSGYFNFADTTYSRMNGYNIETQDGVIQVKPKFTDYYNLAYNKRGKLQLTVTQQLGRTSTLYLSGSHQTYWGTSNVDEQFQAGLNTAFEDINWTLSYSLTKNAWQKGRDQMLALNVNIPFSHWLRSDSKSQWRHASASYSMSHDLNGRMTNLAGVYGTLLEDNNLSYSVQTGYAGGGDGNSGSTGYATLNYRGGYGNANIGYSHSDDIKQLYYGVSGGVLAHANGVTLGQPLNDTVVLVKAPGAKDAKVENQTGVRTDWRGYAVLPYATEYRENRVALDTNTLADNVDLDNAVANVVPTRGAIVRAEFKARVGIKLLMTLTHNNKPLPFGAMVTSESSQSSGIVADNGQVYLSGMPLAGKVQVKWGEEENAHCVANYQLPPESQQQLLTQLSAECR					5.97 ± 0.21	3.14	6.02	> 16	> 8	> 16	6.2	> 16
MNTDTFMCSSDEKQTRSPLSLYSEYQRMEIEFRAPHIMPTSHWHGQVEVNVPFDGDVEYLINNEKVNINQGHITLFWACTPHQLTDTGTCQSMAIFNLPMHLFLSWPLDKDLINHVTHGMVIKSLATQQLSPFEVRRWQQELNSPNEQIRQLAIDEIGLMLKRFSLSGWEPILVNKTSRTHKNSVSRHAQFYVSQMLGFIAENYDQALTINDVAEHVKLNANYAMGIFQRVMQLTMKQYITAMRINHVRALLSDTDKSILDIALTAGFRSSSRFYSTFGKYVGMSPQQYRKLSQQRRQTFPG [P0ACH8]		2.09 ± 0.21	2.5		1.89	2.14 ± 0.34	3.43 ± 0.17	4.03 ± 0.28				4.99 ± 1.6
MLNAWHLPVPPFVKQSKDQLLITLWLTGEDPPQRIMLRTEHDNEEMSVPMHKQRSQPQPGVTAWRAAIDLSSGQPRRRYSFKLLWHDRQRWFTPQGFSRMPPARLEQFAVDVPDIGPQWAADQIFYQIFPDRFARSLPREAEQDHVYYHHAAGQEIILRDWDEPVTAQAGGSTFYGGDLDGISEKLPYLKKLGVTALYLNPVFKAPSVHKYDTEDYRHVDPQFGGDGALLRLRHNTQQLGMRLVLDGVFNHSGDSHAWFDRHNRGTGGACHNPESPWRDWYSFSDDGTALDWLGYASLPKLDYQSESLVNEIYRGEDSIVRHWLKAPWNMDGWRLDVVHMLGEAGGARNNMQHVAGITEAAKETQPEAYIVGEHFGDARQWLQADVEDAAMNYRGFTFPLWGFLANTDISYDPQQIDAQTCMAWMDNYRAGLSHQQQLRMFNQLDSHDTARFKTLLGRDIARLPLAVVWLFTWPGVPCIYYGDEVGLDGKNDPFCRKPFPWQVEKQDTALFALYQRMIALRKKSQALRHGGCQVLYAEDNVVVFVRVLNQQRVLVAINRGEACEVVLPASPFLNAVQWQCKEGHGQLTDGILALPAISATVWMN	6.31 ± 0.59	6.88 ± 1.2	2.49 ± 0.11	2.59 ± 0.38	2.28 ± 0.031	2.48 ± 0.074	3.86 ± 0.075	6.87 ± 1.4	2.18	3.45 ± 0.98	5 ± 0.27	7.49 ± 0.34
MSKSHPRWRLAKKILTWLFFIAVIVLLVVYAKKVDWEEVWKVIRDYNRVALLSAVGLVVVSYLIYGCYDLLARFYCGHKLAKRQVMLVSFICYAFNLTLSTWVGGIGMRYRLYSRLGLPGSTITRIFSLSITTNWLGYILLAGIIFTAGVVELPDHWYVDQTTLRILGIGLLMIIAVYLWFCAFAKHRHMTIKGQKLVLPSWKFALAQMLISSVNWMVMGAIIWLLLGQSVNYFFVLGVLLVSSIAGVIVHIPAGIGVLEAVFIALLAGEHTSKGTIIAALLAYRVLYYFIPLLLALICYLLLESQAKKLRAKNEAAM					4.62 ± 0.87							
MKKTTLALSALALSLGLALSPLSATAAETSSATTAQQMPSLAPMLEKVMPSVVSINVEGSTTVNTPRMPRNFQQFFGDDSPFCQEGSPFQSSPFCQGGQGGNGGGQQQKFMALGSGVIIDADKGYVVTNNHVVDNATVIKVQLSDGRKFDAKMVGKDPRSDIALIQIQNPKNLTAIKMADSDALRVGDYTVAIGNPFGLGETVTSGIVSALGRSGLNAENYENFIQTDAAINRGNSGGALVNLNGELIGINTAILAPDGGNIGIGFAIPSNMVKNLTSQMVEYGQVKRGELGIMGTELNSELAKAMKVDAQRGAFVSQVLPNSSAAKAGIKAGDVITSLNGKPISSFAALRAQVGTMPVGSKLTLGLLRDGKQVNVNLELQQSSQNQVDSSSIFNGIEGAEMSNKGKDQGVVVNNVKTGTPAAQIGLKKGDVIIGANQQAVKNIAELRKVLDSKPSVLALNIQRGDSTIYLLMQ [P0C0V0]	5.66 ± 0.5	5.71 ± 0.21	6.05 ± 0.44	5.85 ± 0.21	5.87 ± 0.45	2.97 ± 0.12	5.88 ± 0.28	10.9 ± 0.37	5.86 ± 0.23	11.5 ± 0.38	5.75 ± 0.2	11.4 ± 0.4
MTPGEVRRLYFIIRTFLSYGLDELIPKMRITLPLRLWRYSLFWMPNRHKDKLLGERLRLALQELGPVWIKFGQMLSTRRDLFPPHIADQLALLQDKVAPFDGKLAKQQIEAAMGGLPVEAWFDDFEIKPLASASIAQVHTARLKSNGKEVVIKVIRPDILPVIKADLKLIYRLARWVPRLLPDGRRLRPTEVVREYEKTLIDELNLLRESANAIQLRRNFEDSPMLYIPEVYPDYCSEGMMVMERIYGIPVSDVAALEKNGTNMKLLAERGVQVFFTQVFRDSFFHADMHPGNIFVSYEHPENPKYIGIDCGIVGSLNKEDKRYLAENFIAFFNRDYRKVAELHVDSGWVPPDTNVEEFEFAIRTVCEPIFEKPLAEISFGHVLLNLFNTARRFNMEVQPQLVLLQKTLLYVEGVGRQLYPQLDLWKTAKPFLESWIKDQVGIPALVRAFKEKAPFWVEKMPELPELVYDSLRQGKYLQHSVDKIARELQSNHVRQGQSRYFLGIGATLVLSGTFLLVSRPEWGLMPGWLMAGGLIAWFVGWRKTR [P0A6A0]	6.52 ± 0.12	6.43 ± 0.4		5.96 ± 0.34	5.829 ± 0.037		6.626 ± 0.057	12.4 ± 1.3	6.04 ± 0.33	12.3 ± 0.45	6.6 ± 0.39	12.8 ± 0.67
MTIFDNYEVWFVIGSQHLYGPETLRQVTQHAEHVVNALNTEAKLPCKLVLKPLGTTPDEITAICRDANYDDRCAGLVVWLHTFSPAKMWINGLTMLNKPLLQFHTQFNAALPWDSIDMDFMNLNQTAHGGREFGFIGARMRQQHAVVTGHWQDKQAHERIGSWMRQAVSKQDTRHLKVCRFGDNMREVAVTDGDKVAAQIKFGFSVNTWAVGDLVQVVNSISDGDVNALVDEYESCYTMTPATQIHGKKRQNVLEAARIELGMKRFLEQGGFHAFTTTFEDLHGLKQLPGLAVQRLMQQGYGFAGEGDWKTAALLRIMKVMSTGLQGGTSFMEDYTYHFEKGNDLVLGSHMLEVCPSIAAEEKPILDVQHLGIGGKDDPARLIFNTQTGPAIVASLIDLGDRYRLLVNCIDTVKTPHSLPKLPVANALWKAQPDLPTASEAWILAGGAHHTVFSHALNLNDMRQFAEMHDIEITVIDNDTRLPAFKDALRWNEVYYGFRR	3.94 ± 0.26	3.03 ± 0.081	3.07	3.405 ± 0.014	3.25 ± 0.17	2.84 ± 0.36	5.77 ± 0.19	9.63 ± 1.2	3.26		5.05 ± 0.14	11.6 ± 1.2
MNQPLLSVNNLTHLYAPGKGFSDVSFDLWPGEVLGIVGESGSGKTTLLKSISARLTPQQGEIHYENRSLYAMSEADRRRLLRTEWGVVHQHPLDGLRRQVSAGGNIGERLMATGARHYGDIRATAQKWLEEVEIPANRIDDLPTTFSGGMQQRLQIARNLVTHPKLVFMDEPTGGLDVSVQARLLDLLRGLVVELNLAVVIVTHDLGVARLLADRLLVMKQGQVVESGLTDRVLDDPHHPYTQLLVSSVLQN							4.8				0.314	1.09 ± 0.26
MNTALAQQIANEGGVEAWMIAQQHKSLLRFLTCGSVDDGKSTLIGRLLHDTRQIYEDQLSSLHNDSKRHGTQGEKLDLALLVDGLQAEREQGITIDVAYRYFSTEKRKFIIADTPGHEQYTRNMATGASTCELAILLIDARKGVLDQTRRHSFISTLLGIKHLVVAINKMDLVDYSEETFTRIREDYLTFAGQLPGNLDIRFVPLSALEGDNVASQSESMPWYSGPTLLEVLETVEIQRVVDAQPMRFPVQYVNRPNLDFRGYAGTLASGRVEVGQRVKVLPSGVESNVARIVTFDGDREEAFAGEAITLVLTDEIDISRGDLLLAADEALPAVQSASVDVVWMAEQPLSPGQSYDIKIAGKKTRARVDGIRYQVDINNLTQREVENLPLNGIGLVDLTFDEPLVLDRYQQNPVTGGLIFIDRLSNVTVGAGMVHEPVSQATAAPSEFSAFELELNALVRRHFPHWGARDLLGDK	4.99 ± 0.27	4.67 ± 0.42	1.18 ± 0.2	1.23 ± 0.018	1.13 ± 0.045	1.58 ± 0.051	1.61 ± 0.17	2.08 ± 0.23	1.29 ± 0.057	1.39 ± 0.11	1.67 ± 0.47	2.32 ± 0.57
